Earlier results as cited in publication PMC8801382.

Experiments:
[1] = target: alpha-globin (Homo sapiens) (UniProt P69905)
[2] = target: beta-globin (Homo sapiens) (UniProt P68871)
UniProt P68871, sequence (P68871 2-147): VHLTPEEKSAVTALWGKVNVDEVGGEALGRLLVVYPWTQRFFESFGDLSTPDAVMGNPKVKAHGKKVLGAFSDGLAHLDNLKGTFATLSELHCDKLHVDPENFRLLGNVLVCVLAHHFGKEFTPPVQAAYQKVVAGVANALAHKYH

| Kd [1] | Kd [2] | Substance |
| --- | --- | --- |
| 17 nM |  | AHSP (from UniProt Q9NZD4) |
|  | 0.001 nM | alpha-globin (from UniProt P69905) |
